Measured values published in doi:10.1101/2021.01.14.426755 (bioRxiv, 2021).

T1: Rad3 (yeast (endogenous, purified from yeast), UniProt P06839 1-778)
T1 sequence: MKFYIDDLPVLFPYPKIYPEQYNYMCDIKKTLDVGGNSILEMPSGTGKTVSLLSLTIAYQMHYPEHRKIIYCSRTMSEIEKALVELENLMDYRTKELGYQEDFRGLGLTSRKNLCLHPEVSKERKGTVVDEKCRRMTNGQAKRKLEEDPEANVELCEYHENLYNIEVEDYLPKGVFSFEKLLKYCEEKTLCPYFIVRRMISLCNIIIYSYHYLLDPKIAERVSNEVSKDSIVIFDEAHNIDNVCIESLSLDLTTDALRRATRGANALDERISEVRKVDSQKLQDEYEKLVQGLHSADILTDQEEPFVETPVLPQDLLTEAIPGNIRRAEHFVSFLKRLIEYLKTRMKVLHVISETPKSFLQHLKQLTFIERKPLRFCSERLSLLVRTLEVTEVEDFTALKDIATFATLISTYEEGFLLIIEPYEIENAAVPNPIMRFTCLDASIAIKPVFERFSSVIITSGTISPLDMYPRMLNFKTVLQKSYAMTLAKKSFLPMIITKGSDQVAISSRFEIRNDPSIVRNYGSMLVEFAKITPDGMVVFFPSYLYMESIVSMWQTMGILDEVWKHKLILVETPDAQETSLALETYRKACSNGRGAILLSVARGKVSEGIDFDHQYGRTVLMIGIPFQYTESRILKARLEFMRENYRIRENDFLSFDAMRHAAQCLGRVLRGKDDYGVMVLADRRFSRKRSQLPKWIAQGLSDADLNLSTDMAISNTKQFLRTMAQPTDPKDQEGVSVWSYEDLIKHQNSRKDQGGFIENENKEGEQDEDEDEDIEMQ

T2: Rad4-Rad23-Rad33 complex (yeast, UniProt P14736 1-754; P32628 1-398; Q04231 1-177)
T2 sequence 1: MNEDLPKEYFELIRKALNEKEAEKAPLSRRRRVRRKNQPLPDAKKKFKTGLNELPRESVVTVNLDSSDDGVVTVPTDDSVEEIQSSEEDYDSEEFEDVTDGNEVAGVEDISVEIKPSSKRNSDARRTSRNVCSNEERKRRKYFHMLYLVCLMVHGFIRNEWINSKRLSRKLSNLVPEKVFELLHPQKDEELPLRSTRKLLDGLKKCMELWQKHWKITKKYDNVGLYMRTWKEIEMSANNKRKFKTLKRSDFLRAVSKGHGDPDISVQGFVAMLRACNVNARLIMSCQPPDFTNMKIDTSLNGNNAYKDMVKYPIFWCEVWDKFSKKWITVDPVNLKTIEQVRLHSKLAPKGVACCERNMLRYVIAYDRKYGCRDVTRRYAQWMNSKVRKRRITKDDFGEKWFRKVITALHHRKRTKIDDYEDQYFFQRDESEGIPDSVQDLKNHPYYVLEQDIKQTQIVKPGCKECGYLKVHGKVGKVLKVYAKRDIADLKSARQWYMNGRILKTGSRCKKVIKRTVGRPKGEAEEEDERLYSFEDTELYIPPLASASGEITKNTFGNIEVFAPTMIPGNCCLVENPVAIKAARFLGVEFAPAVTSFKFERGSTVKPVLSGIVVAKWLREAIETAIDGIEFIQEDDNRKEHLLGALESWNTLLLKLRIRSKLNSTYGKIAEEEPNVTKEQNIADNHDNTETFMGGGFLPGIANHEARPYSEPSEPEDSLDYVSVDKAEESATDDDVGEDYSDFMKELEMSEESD
T2 sequence 2: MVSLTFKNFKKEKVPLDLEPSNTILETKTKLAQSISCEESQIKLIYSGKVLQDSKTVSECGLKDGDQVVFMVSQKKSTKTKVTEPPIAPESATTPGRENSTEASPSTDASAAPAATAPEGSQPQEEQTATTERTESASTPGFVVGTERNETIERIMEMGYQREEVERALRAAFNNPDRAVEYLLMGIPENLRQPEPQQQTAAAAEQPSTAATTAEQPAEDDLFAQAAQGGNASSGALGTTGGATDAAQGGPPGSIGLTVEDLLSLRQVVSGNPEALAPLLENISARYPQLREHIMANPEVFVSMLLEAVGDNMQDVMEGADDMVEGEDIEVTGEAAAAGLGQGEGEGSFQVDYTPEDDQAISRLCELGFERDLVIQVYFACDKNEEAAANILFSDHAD
T2 sequence 3: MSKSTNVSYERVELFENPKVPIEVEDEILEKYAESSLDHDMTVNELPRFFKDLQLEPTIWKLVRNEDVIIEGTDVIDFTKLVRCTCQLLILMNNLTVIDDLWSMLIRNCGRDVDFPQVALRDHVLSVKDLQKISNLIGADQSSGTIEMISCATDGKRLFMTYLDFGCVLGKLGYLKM

T3: Rad4 (yeast, UniProt P14736 1-754)
T3 sequence: T2 sequence 1

B1: Ssl1 (natural protein)
chain: MAPVVISESEEDEDRVAITRRTKRQVHFDGEGDDRVDQQQQQHSSSHRDRDKHVQRKKKKRLSNRNLQGSNGGYAWEDEIKRSWDLVKVDDEGDMASLVASIVEARKKRTAKKNITPYQRGIIRSLILTLDCSEAMLEKDLRPNRHAMIIQYAIDFVHEFFDQNPISQMGIIIMRNGLAQLVSQVSGNPQDHIDALKSIRKQEPKGNPSLQNALEMARGLLLPVPAHCTREVLIVFGSLSTTDPGDIHQTIDSLVSEKIRVKVLGLSAQVAICKELCKATNYGDESFYKILLDETHLKELFNEAVTPLPVNKINKGFTLVKMGFPTRIFEDTPTFCSCHSKLVYGGYFCPNCHSKVCSLPTVCPCCDLMLILSTHLARSYHHLMPLKTFAEVPTTEKFRSEDCFSCQSRFPILKNHKNGKLLTSSRYRCEDCKQEFCVDCDVFIHEILHNCPGCESKPVIT
B2: Ssl2 (natural protein)
chain: MTDVEGYQPKSKGKIFPDMGESFFSSDEDSPATDAEIDENYDDNRETSEGRGERDTGAMVTGLKKPRKKTKSSRHTAADSSMNQMDAKDKALLQDTNSDIPADFVPDSVSGMFRSHDFSYLRLRPDHASRPLWISPSDGRIILESFSPLAEQAQDFLVTIAEPISRPSHIHEYKITAYSLYAAVSVGLETDDIISVLDRLSKVPVAESIINFIKGATISYGKVKLVIKHNRYFVETTQADILQMLLNDSVIGPLRIDSDHQVQPPEDVLQQQLQQTAGKPATNVNPNDVEAVFSAVIGGDNEREEEDDDIDAVHSFEIANESVEVVKKRCQEIDYPVLEEYDFRNDHRNPDLDIDLKPSTQIRPYQEKSLSKMFGNGRARSGIIVLPCGAGKTLVGITAACTIKKSVIVLCTSSVSVMQWRQQFLQWCTLQPENCAVFTSDNKEMFQTESGLVVSTYSMVANTRNRSHDSQKVMDFLTGREWGFIILDEVHVVPAAMFRRVVSTIAAHAKLGLTATLVREDDKIGDLNFLIGPKLYEANWMELSQKGHIANVQCAEVWCPMTAEFYQEYLRETARKRMLLYIMNPTKFQACQFLIQYHERRGDKIIVFSDNVYALQEYALKMGKPFIYGSTPQQERMNILQNFQYNDQINTIFLSKVGDTSIDLPEATCLIQISSHYGSRRQEAQRLGRILRAKRRNDEGFNAFFYSLVSKDTQEMYYSTKRQAFLVDQGYAFKVITHLHGMENIPNLAYASPRERRELLQEVLLKNEEAAGIEVGDDADNSVGRGSNGHKRFKSKAVRGEGSLSGLAGGEDMAYMEYSTNKNKELKEHHPLIRKMYYKNLKK
B3: Rad33 (natural protein)
chain: T2 sequence 3
B4: Tfb1 (natural protein)
chain: MSHSGAAIFEKVSGIIAINEDVSPAELTWRSTDGDKVHTVVLSTIDKLQATPASSEKMMLRLIGKVDESKKRKDNEGNEVVPKPQRHMFSFNNRTVMDNIKMTLQQIISRYKDADIYEEKRRREESAQHTETPMSSSSVTAGTPTPHLDTPQLNNGAPLINTAKLDDSLSKEKLLTNLKLQQSLLKGNKVLMKVFQETVINAGLPPSEFWSTRIPLLRAFALSTSQKVGPYNVLSTIKPVASSENKVNVNLSREKILNIFENYPIVKKAYTDNVPKNFKEPEFWARFFSSKLFRKLRGEKIMQNDRGDVIIDRYLTLDQEFDRKDDDMLLHPVKKIIDLDGNIQDDPVVRGNRPDFTMQPGVDINGNSDGTVDILKGMNRLSEKMIMALKNEYSRTNLQNKSNITNDEEDEDNDERNELKIDDLNESYKTNYAIIHLKRNAHEKTTDNDAKSSADSIKNADLKVSNQQMLQQLSLVMDNLINKLDLNQVVPNNEVSNKINKRVITAIKINAKQAKHNNVNSALGSFVDNTSQANELEVKSTLPIDLLESCRMLHTTCCEFLKHFYIHFQSGEQKQASTVKKLYNHLKDCIEKLNELFQDVLNGDGESMSNTCTAYLKPVLNSITLATHKYDEYFNEYNNNSN

How the values were obtained:
Rad3 = target: T1, Rad3; test: cryo-EM structure
Rad4-Rad23-Rad33 complex = target: T2, Rad4-Rad23-Rad33 complex; test: cross-linking
Ssl2 = target: B2; test: cryo-EM structure
Rad4 = target: T3, Rad4; test: cryo-EM structure

B1: binds (Rad3).

B2: binds (Rad4-Rad23-Rad33 complex).

B3: binds (Ssl2); binds (Rad4).

B4: binds (Rad4); binds (Rad3); binds (Rad4-Rad23-Rad33 complex).
